This is an account of results in patent publication US20230174659A1 (GENERAL HOSPITAL, published 2023).

Test [1] deals with T1, Amino acid residues 146-165 of human TNFR2 (human).
T1 peptide: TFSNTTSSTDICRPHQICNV
Briefly: ELISA on plate-coated linear peptide S04078. The method, then: (§1) ELISA was also used to determine linear epitopes present on the extracellular surface of TNFR2. Linear peptides corresponding to various regions within the TNFR2 primary sequence were purchased from GenScript (Piscataway, NJ), diluted in coating buffer and placed on Immulon 4HBX Flat Bottom Microtiter Plates (Thermo Scientific) at a concentration of 1 µg/well. Primary TNFR2 agonistic antibodies (0.1 µg/well) were incubated with substrates. Secondary antibodies against rodent IgG were used to detect the primary antibodies. Absorbance was measured using the SPECTRAMAX^{®} 190 Absorbance Plate Reader and analyzed with SoftMax Pro 6.3 (Molecular Devices).

Test [2] has as its target Full-length human TNFR2 (human) (UniProt P20333). In words: ELISA, immobilised human TNFR2 / TNFR2 peptide fragments, TNFRAG1 as primary antibody.
For test [3], the target named is T2, Amino acid residues 82-101 of human TNFR2 (human).
T2 sequence (peptide): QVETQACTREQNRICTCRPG
Briefly: ELISA on TNFR2 peptide, antibody alone; Affinity cell of this row is '-'. A general note: In an ELISA, binding on a coated surface is turned into a signal by an enzyme label.

In test [4] the target is T3, Amino acid residues 106-125 of human TNFR2 (human).
T3 sequence (peptide): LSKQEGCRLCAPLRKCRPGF
The description is as above.

For test [5], the target named is T4, Amino acid residues 66-85 of human TNFR2 (human).
T4 sequence (peptide): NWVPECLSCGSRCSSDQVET
The test is described as above.

The target of test [6] is T5, Amino acid residues 74-93 of human TNFR2 (human).
T5 sequence (peptide): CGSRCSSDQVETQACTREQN
The description is as above.

Test [7] has as its target T6, Amino acid residues 114-133 of human TNFR2 (human).
T6 peptide: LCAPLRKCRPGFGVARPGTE
Briefly: ELISA on plate-coated linear peptide S04074. The method, then:
as §1

For test [8], the target named is T7, Amino acid residues 138-157 of human TNFR2 (human).
T7 peptide: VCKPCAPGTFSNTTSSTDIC
Briefly: ELISA, immobilised TNFR2 peptide fragments, TNFRAG1 as primary antibody. As for the experimental part:
(§2) The binding of antibody to each of the synthesized peptides was tested in an ELISA format. Surface-immobilized peptide arrays were incubated with primary antibody solution (overnight at 4° C.). After washing, the peptide arrays were incubated with a 1/1000 dilution of an appropriate antibody peroxidase conjugate (SBA) for one hour at 25° C. After washing, the peroxidase substrate 2,2′-azino-di-3- ethylbenzthiazoline sulfonate (ABTS) and 2 µl/ml of 3 percent H₂O₂ were added. After one hour, the color development was measured. The color development was quantified with a charge coupled device (CCD) - camera and an image processing system. The values obtained from the CCD camera range from 0 to 3000 mAU, similar to a standard 96-well plate ELISA-reader.
(§3) Affinity is reported qualitatively using a categorical four-point scale, such that an affinity score of “0” denotes lowest affinity and an affinity score of “4” denotes highest affinity.

Test [9] concerns the target T8, Amino acid residues 50-69 of human TNFR2 (human).
T8 peptide: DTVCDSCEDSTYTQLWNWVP
The description is as above. The method, then: as §2, §3

Test [10] has as its target T9, Amino acid residues 130-149 of human TNFR2 (human).
T9 peptide: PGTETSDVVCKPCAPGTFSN
Described as above. As for the experimental part: as §2, §3

Test [11] deals with T10, Amino acid residues 170-189 of human TNFR2 (human).
T10 peptide: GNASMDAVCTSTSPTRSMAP
Described as above. The method, then:
as §2, §3

For test [12], the target named is T11, Amino acid residues 17-36 of human TNFR2 (human).
T11 peptide: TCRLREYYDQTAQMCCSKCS
Described as above. The method, then:
as §2, §3

Test [13] concerns the target T12, Amino acid residues 42-61 of human TNFR2 (human).
T12 peptide: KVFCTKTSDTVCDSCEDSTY
The description is as above. As for the experimental part:
as §2, §3

For test [14], the target named is T13, Amino acid residues 90-109 of human TNFR2 (human).
T13 peptide: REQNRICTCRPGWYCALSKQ
The test is described as above. As for the experimental part:
as §2, §3

The target in test [15] is T14, Amino acid residues 9-28 of human TNFR2 (human).
T14 peptide: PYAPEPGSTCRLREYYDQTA
Described as above. As for the experimental part: as §2, §3

For test [16], the target named is T15, Amino acid residues 1-20 of human TNFR2 (human).
T15 peptide: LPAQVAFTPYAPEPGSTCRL
The test is described as above. The method, then: as §2, §3

Test [17] concerns the target T1, Amino acid residues 146-165 of human …. Described as above. As for the experimental part: as §2, §3
Test [18] deals with T16, Amino acid residues 154-174 of human TNFR2 (human).
T16 construct: The printed range 154-174 spans 21 residues, but the printed peptide has 20
T16 peptide: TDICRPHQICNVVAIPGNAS
The test is described as above. As for the experimental part: as §2, §3

The target of test [19] is T17, Amino acid residues 162-181 of human TNFR2 (human).
T17 peptide: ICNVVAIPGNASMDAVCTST
Described as above. As for the experimental part: as §2, §3

The target in test [20] is T18, Amino acid residues 122-141 of human TNFR2 (human).
T18 peptide: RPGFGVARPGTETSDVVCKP
The test is described as above. As for the experimental part:
as §2, §3

Test [21] concerns the target T19, Amino acid residues 58-77 of human TNFR2 (human).
T19 peptide: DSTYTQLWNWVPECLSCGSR
The test is described as above. As for the experimental part: as §2, §3

The target in test [22] is T6, Amino acid residues 114-133 of human …. Described as above. As for the experimental part:
as §2, §3

The target in test [23] is T16, Amino acid residues 154-174 of human …. Briefly: ELISA on plate-coated linear peptide S04079. As for the experimental part:
as §1

B1: agonistic TNFR2 antibody TNFRAG1 (antibody, V domains shown)
VH: EVQLQQFGAELVKPGASVKISCKASGYTFTDYNIDWVKQSHGKSLEWIGDINPNYDSTSYSQKFRGKATLTVDKSSSTAYMELRSLTSEDTAVYYCARGNSWYFDVWGAGTTVTVSS
VL: QIVLTQSPALMSASPGEKVTMTCSASSSVRYMYWYQQKPRSSPKPWIYLTSNLASGVPARFSGSGSGTSYSLTISSMEAEDAATYYCQQWSSNPLTFGAGTKLELK
notes: It was detected with secondary antibodies against rodent IgG; also called monoclonal TNFR2 antibody TNFRAG1; TNFR2 agonist antibody
As to B1, the binding result in test [1], in test [7] and in test [23] was “no binding” throughout. This molecule also displayed an Affinity Score (affinity score (0 lowest to 4 highest)) in [2] of 4. Moreover, the Reading in [3], in test [4], in test [5] and in test [6] was 2 each time. Besides, the “Affinity Score” value in [8], in test [9], in [10], in test [11], in [12] and in test [13] was 0 affinity score (0 lowest to 4 highest) throughout. Also, the “Affinity Score” value in test [14] was 2 affinity score (0 lowest to 4 highest); in [15], 0 affinity score (0 lowest to 4 highest); in test [16] it was 0 affinity score (0 lowest to 4 highest); in test [17], 0 affinity score (0 lowest to 4 highest); in [18], 0 affinity score (0 lowest to 4 highest); in test [19], 0 affinity score (0 lowest to 4 highest). In addition, the “Affinity Score” value in test [20], in test [21] and in test [22] was 0 affinity score (0 lowest to 4 highest) each time.
